From the nanobody polyreactivity screen of Harvey et al. (2022)

Test: yeast display, Sf9 membrane polyspecificity reagent, FACS + sequencing; frameworks hold sequencing errors
Outline: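 In a synthetic yeast display library (Saccharomyces cerevisiae BJ5465), nanobody expression was induced with galactose for 36–48 hours. FACS gates were set low and high (top ~1%) using anti-HA fluorescence for expression and streptavidin fluorescence for binding of the Sf9 membrane reagent. Each polyreactivity label is drawn from the gate of origin.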

Sequence: QVQLVESGGGLVQAGGSLRLSCAASGSTFYGYTMGWYRQAPGKERELVAVITSGGSTYYADSVKGRFTISRDNAKNTVYLQMNSLKPEDTAVYYCAKRYGYPAYGRPWRIGRTYDYWGQGTQVTVSS
- polyreactivity (PSR sort gate): low polyreactivity

Sequence: QVQLVESGGGLVQAGGSLRLSCAASGSTFYHNAMGWYRQAPGKERELVAAMTWSGSRTYYADSVKGRFTISRDNAKNTVYLQMNSLKPEDTAVYYCAARDYWGQGTQVTVSS
- polyreactivity (PSR sort gate): high polyreactivity

Sequence: QVQLVESGGGLVQAGGSLRLSCAASGSTFYHYAMGWYRQAPGKERELVAAISTSGGRTYDADSVKGRFTISRDNAKNNVYLQMNSLKPEDTAVYYCAARPGSWYPSVPSYNYWGQGTQVTVSS
- polyreactivity (PSR sort gate): low polyreactivity

Sequence: QVQLVESGGGLVQAGGSLRLSCAASGSTFYIHAMGWNRQAPGKERELVAAISATGTRTYYADSVKGRFTISRDNAKNTFYLQMNSLKPEDTAVYYWNAVYWYWWVITYVGPGLGYWGQVTQVTVSS
- polyreactivity (PSR sort gate): high polyreactivity

Sequence: QVQLVESGGGLVQAGGSLRLSCAASGSTFYIYAIGLYRQAPGKERELVAAINWRTGSTYYADSVMGRFTISRDNAKNTVYLQMNSLKPEDTAVYYWNAYTQHWSYWGQGTQVTVSS
- polyreactivity (PSR sort gate): high polyreactivity

Sequence: QVQLVESGGGLVQAGGSLRLSCAASGSTFYIYAMGAYRPAPGKERELVARISGSGGSTYYADSVKGRFTISRDNAKNTGYLQMNSLKPEDTAVYYCAADDIYKYYQYYAFPYYRYVYWGHGTQVTVSS
- polyreactivity (PSR sort gate): low polyreactivity

Sequence: QVQLVESGGGLVQAGGSLRLSCAASGSTFYIYAMGWYRQAPGKEREFVAAISRTGGSTYYADSVKGRFTISRDNAKNTVYLQMNSLKPEDTAVYYCAAEYKGFRGRYDYWGQGTQVTVSS
- polyreactivity (PSR sort gate): high polyreactivity

Sequence: QVQLVESGGGLVQAGGSLRLSCAASGSTFYIYAMGWYRQAPGKERELVADITWSGGSTYYADSVKGRFTISRDNAKNTVYLQMNSLKPEDTAVYYCATDSWFGLEYWGQCTQVTVSS
- polyreactivity (PSR sort gate): high polyreactivity

Sequence: QVQLVESGGGLVQAGGSLRLSCAASGSTFYIYAMGWYRQAPGKERELVARISGSGGSTYYADSVKGRFTISRDNAKNTVYLQMNSLKPEDTAVYYCAADDIYKYYQYYAFPYYRYDYWGQGSQVTVSS
- polyreactivity (PSR sort gate): low polyreactivity

Sequence: QVQLVESGGGLVQAGGSLRLSCAASGSTFYIYAMGWYRQAPGKERELVARISGSGGSTYYSDSVKGRFTISRDNSKNTVYLQMNSLKPEVTAVYYCAADDIYKYYQYYAFPYYRYDYWGQGTQVTVSS
- polyreactivity (PSR sort gate): low polyreactivity

Sequence: QVQLVESGGGLVQAGGSLRLSCAASGSTFYIYAMGWYRQAPGKERELVATITRAGTTNYADSVKGRFTISRDNAMNTVYLQMNSLKPEETAVYYCAKRKFRWPYQGSYSYIPFGYCGQGTQVTVSS
- polyreactivity (PSR sort gate): high polyreactivity

Sequence: QVQLVESGGGLVQAGGSLRLSCAASGSTFYKNAMGWYRQAPGKERELVAAINQSGTRTYYADSVKGRFTISRDNAKNTVYLQMNSLKPEDTAVYYCAAGRGPYYRSRTPLYYWGQGTQVTVSS
- polyreactivity (PSR sort gate): high polyreactivity

Sequence: QVQLVESGGGLVQAGGSLRLSCAASGSTFYKNAMGWYRQAPGKERELVAGISRRGGRTYYADSVKGRFTISRDNAKNTVYLQMNSLKPEDTAVYYCNTGHEEDEYDYWGQGTQVTVSS
- polyreactivity (PSR sort gate): low polyreactivity

Sequence: QVQLVESGGGLVQAGGSLRLSCAASGSTFYKYAMGWYRQATGKERELVASTYADSVKGRFTISRDNAKNTVYLQMNSLKPEDTAVYYCAKDTASGPYDYWGQGTQVTVSS
- polyreactivity (PSR sort gate): low polyreactivity

Sequence: QVQLVESGGGLVQAGGSLRLSCAASGSTFYKYGMGWYRPAPGKERELVAAISGSGDSTYYADSVKGRFTISRDNAKNTVYLQMNSLKPEDTAVYYCNAGPWWYLHEYDYWGQGTQVTVSS
- polyreactivity (PSR sort gate): low polyreactivity

Sequence: QVQLVESGGGLVQAGGSLRLSCAASGSTFYLNAMGWYRKAHGKERELVAPINGSGGSTYADSVKGRFTISRDNAKNTVYLQLHSLKPEDTAVYYCAADGTGYPGDSYPGMDYDYWGQVTQVTVSS
- polyreactivity (PSR sort gate): low polyreactivity

Sequence: QVQLVESGGGLVQAGGSLRLSCAASGSTFYLNAMGWYRQAPGKERELVAAINGSGGSTYADSVKGRFTISRDNAKNTVYLQMKSLIQEDTAVYYCAADGSGYPGYSYPGKDYDDWGQGTQVNVSS
- polyreactivity (PSR sort gate): low polyreactivity

Sequence: QVQLVESGGGLVQAGGSLRLSCAASGSTFYLNAMGWYRQAPGKERELVAAISRRGGSTYYADSVKGRFTISRDNAKNTVYLEMNSLKPDDTAVYYCNRARVYGYYAPFDYWGQGTQVTVSS
- polyreactivity (PSR sort gate): high polyreactivity

Sequence: QVQLVESGGGLVQAGGSLRLSCAASGSTFYLNAMGWYRQAPGKERELVAAISSGGRTYYADSVKGRFTISRDNAKNTVYLQMNSLKPEDTAVYYCNAVRYLRGAYNYWGQGTQVTVSS
- polyreactivity (PSR sort gate): high polyreactivity

Sequence: QVQLVESGGGLVQAGGSLRLSCAASGSTFYLNAMGWYRQAPGKERELVAAISSSGGSKYYADSVKGRFTISRDNAKNTVYLQMNSLKPEDTAVYYCACSCFPAVSVYGGDYWGQGTQVTVSS
- polyreactivity (PSR sort gate): low polyreactivity

Sequence: QVQLVESGGGLVQAGGSLRLSCAASGSTFYLYAKGWYRQAPGKEREMVAAITGSGSRTYYADSVKGRFTISRDNAKNTVYLQMHSLNPEDTAVYYCAAKYGWQGGRGRDYWGQGTQVTVSS
- polyreactivity (PSR sort gate): high polyreactivity

Sequence: QVQLVESGGGLVQAGGSLRLSCAASGSTFYLYAMGWYRQAPGKERELVAAISWSGGDKYYADSVKGRFTISRDNAKNTVYLQMNSLKPEDTAVYYCAAEITDSYPGSPRRRDYWGQGTQVTVSS
- polyreactivity (PSR sort gate): low polyreactivity

Sequence: QVQLVESGGGLVQAGGSLRLSCAASGSTFYLYTMGWYRQAPGKERELVAAINRSGGRTYYADSVKGRFTISRDNAKNTVYLQMNSLKPEDTAVYYCAADLASYAYRYDYWGQGTQVTVSS
- polyreactivity (PSR sort gate): high polyreactivity

Sequence: QVQLVESGGGLVQAGGSLRLSCAASGSTFYNAMGWYRQAPGKERELVAAITRSGGSTYYADSVKGRFTISRDNAKNTVYLQMNSLKPEDTAVYYCAAKSIIRPSAPRRDDMDYWGQGTQVTVSS
- polyreactivity (PSR sort gate): low polyreactivity

Sequence: QVQLVESGGGLVQAGGSLRLSCAASGSTFYNNAMGWYRPAPGKERELVAAISSGGGTYYADSVKGRFTISRDNAKNTVYLQMNSLKPEDTAVYYCAAYFANTTHWGRIKRYDYWGQGTQVTVSS
- polyreactivity (PSR sort gate): low polyreactivity

Sequence: QVQLVESGGGLVQAGGSLRLSCAASGSTFYNNAMGWYRQAPGKERESVAAITASGGRTYYADSVKGRFTISRDNAKNTVYLQMNSLKPEDTAVYYCAARGFDRYYWGQGTQVTVSS
- polyreactivity (PSR sort gate): high polyreactivity

Sequence: QVQLVESGGGLVQAGGSLRLSCAASGSTFYNYVMGWYRQAPGKERELVAVINRSGTRTYYADSVKGRLTISRDNAKITVYLQMNSLKPEDTAVYYCNAELSYPGRYDSWGQGTQVTVSS
- polyreactivity (PSR sort gate): high polyreactivity

Sequence: QVQLVESGGGLVQAGGSLRLSCAASGSTFYPNAMGWYRQAPGKERELVAAITDSVGTTNYADSVKGRFTISRDNAKNTVYLQMNSLKPEDTAVYYCAKVKSYWNGYRYYYWGQGTQVTVSS
- polyreactivity (PSR sort gate): low polyreactivity

Sequence: QVQLVESGGGLVQAGGSLRLSCAASGSTFYPYAMGWYRLAPGKERELVAVISSGGSTNYADSVKGRFTISRDNAKNTVYLQMNSLKPEDTAVYYCAADLAVYYIFLALEFNYWGQGTQVTVSS
- polyreactivity (PSR sort gate): low polyreactivity

Sequence: QVQLVESGGGLVQAGGSLRLSCAASGSTFYPYAMGWYRQAPGKEREFVAAISGRGGSTFYADSVKGRFTISRDNAKNTVYIQMNSLKPEDTAVYYCAASVFKLVGYDYWGQGTQVTLSS
- polyreactivity (PSR sort gate): high polyreactivity

Sequence: QVQLVESGGGLVQAGGSLRLSCAASGSTFYPYAMGWYRQAPGKERELVAAISRIGSRTYYADSVKGRFTISRDNAKNTVYLQMNSLKPEDTAVYYCNASYVLTGQRYGYWGQGTQVTVSS
- polyreactivity (PSR sort gate): low polyreactivity

Sequence: QVQLVESGGGLVQAGGSLRLSCAASGSTFYPYAMGWYRQAPGKERELVAAISSGGSTSYADSVKGRFTISRDNAKNTVYLQMNSLKPEDTAVYYCNASSPGAVPVYDYDYWGQGTQVTVSS
- polyreactivity (PSR sort gate): low polyreactivity

Sequence: QVQLVESGGGLVQAGGSLRLSCAASGSTFYPYAMGWYRQAPGKERELVAAISSGGSTYYADSVKGRFTISRDNAKNTVYLQMNSLKPQDTAVYYCAADFYYAYYWGQGTQVTVSS
- polyreactivity (PSR sort gate): low polyreactivity

Sequence: QVQLVESGGGLVQAGGSLRLSCAASGSTFYPYAMGWYRQAPGKERELVAAISYSGGSTYYADSVKGRFTISRDNAKNTVYLQMNSLKPEDSAVYYCAAYYRRQFTSYGNYYYWGQGTQVTLSS
- polyreactivity (PSR sort gate): high polyreactivity

Sequence: QVQLVESGGGLVQAGGSLRLSCAASGSTFYPYAMGWYRQAPGKERELVAAITSGGRTYYADSVKGRFTISRDNAKNTVYLQMNSLKPEDTAVYYCAALQYRRLRDYRHDYWGQGTQVTVSS
- polyreactivity (PSR sort gate): high polyreactivity

Sequence: QVQLVESGGGLVQAGGSLRLSCAASGSTFYPYAMGWYRQAPGKERELVAAITSSGGSTYYADSVKGRFTISRDNAKNTVYLQMNSLKPEDSAVYYCAKLHVPPVHYDYWGQGTQVTVSS
- polyreactivity (PSR sort gate): low polyreactivity

Sequence: QVQLVESGGGLVQAGGSLRLSCAASGSTFYPYAMGWYRQAPGKERELVADITNSGSTYYADSVKGRFTISRDNAKNTVYLQMNSLKPEDTAVYYCAARVYSVADYYYWGQGTQVTVSS
- polyreactivity (PSR sort gate): low polyreactivity

Sequence: QVQLVESGGGLVQAGGSLRLSCAASGSTFYPYAMGWYRQAPGKERELVASITTDDGSTYYADSVKGRFTISRDNAKNTVYLQMNSLKPEDTAVYYCAARFRGFAVDWYPFRQGDYWGQGTQVTVSS
- polyreactivity (PSR sort gate): low polyreactivity

Sequence: QVQLVESGGGLVQAGGSLRLSCAASGSTFYPYAMGWYRQAPGKERELVAVISWRGGSTYYADSVKGRFTISRDNAKNTVYLQMNSLKPEDTAVYYCGASGYRGYEYWGQGTQVTVSS
- polyreactivity (PSR sort gate): high polyreactivity

Sequence: QVQLVESGGGLVQAGGSLRLSCAASGSTFYPYFMGWYRQAPAKEREFVAAISKSGGSTYYADSVKGRFTISRDNAKNTVYLQMNSLKPEDTAVYYCNKKVGSYYRSYYYWGQGTQVTVSS
- polyreactivity (PSR sort gate): high polyreactivity

Sequence: QVQLVESGGGLVQAGGSLRLSCAASGSTFYQYDMGWSRQAPGKERELVATISWSATSTYYADSVKGRFTISRDNAKNTVYLQMNSLKPEDTAVYYCNADLGDVYGWLHYDYWGQGTQVTVSS
- polyreactivity (PSR sort gate): low polyreactivity

Sequence: QVQLVESGGGLVQAGGSLRLSCAASGSTFYRNAMGWSRPAPGKERELVAAINKSGGRTYYADSVKGRFTISRDNAKNTVYLQMNSLKPEDTAVYYCAAGVSVDLDYWGQGTQVTVSS
- polyreactivity (PSR sort gate): high polyreactivity

Sequence: QVQLVESGGGLVQAGGSLRLSCAASGSTFYRNAMGWYRQAPGKERELVAAISGSGARTYYADSVKGRFTISRDNAKNTVYLQMNSLKPEDTAVYYCNAKRYFRNHFRTGGMYYWGQGTQVTVSS
- polyreactivity (PSR sort gate): high polyreactivity
